Here are results for two molecules from patent publication US20170369572A1 (CELGENE, published 2017).

Assay [1] has as its target T1, human C1q (human, UniProt P02745 23-245; P02746 28-253; P02747 29-245).
T1 construct: also called C1q (AbD Serotec 2221-5504)
Briefly: C1q binding ELISA, antibody coated and titrated from 133.4 nM, human C1q at 2 µg/mL, detected with anti-C1q HRP. The procedure:
(§1) Method: 96-well high protein binding ELISA plates (MaxSorp Nunc) were coated overnight at 4° C. with sample anti-CD47 antibody variants diluted in 0.05 M Sodium Bicarbonate Buffer (pH 9). Samples were diluted at a high concentration of 133.4 nM (20 μg/ml) and titrated 1:2 in an 11-point dilution curve. Plates were washed three times in PBS, 0.05% Tween 20 and blocked for 1 hour at room temperature with ELISA Diluent (0.1 M NAPO₄, 0.1 M NaCl, 0.1% gelatin, 0.05% Tween 20, 0.05% ProClin300). Plates were then washed again three times and incubated for two hours at room temperature with 2 μg/mL human C1q (AbD Serotec 2221-5504, 1 mg/mL stock) diluted in ELISA Diluent. Plates were then washed three times and incubated with sheep anti-human C1q HRP (AbD Serotec 2221-5004P) diluted 1:200 in ELISA Diluent for 1 hour at room temperature to detect bound Clq. Plates were then washed three times, then 100 μL of TMB solution was added. Reaction was quenched by adding 100 μl of 1M Phosphoric Acid and plate was read at 450 nm. Data are plotted using Prism6 as non-linear regression with log (inhibitor) vs. response—Variable slope (four parameters).
Background: In an ELISA, binding on a coated surface is turned into a signal by an enzyme label.

For assay [2], the target named is T2, human CD47 on CCRF-CEM cells (human, UniProt Q08722 19-323).
T2 construct: Endogenous CD47 on the human T lymphoblast line CCRF-CEM (ATCC CCL-119); also called CD47-positive CCRF-CEM cells; CCRF-EM cells
Description: flow cytometry on CCRF-CEM cells, MFI against concentration, one site specific binding with Hill slope. The procedure:
To obtain binding curves, sample variants were titrated 1:2 in FACS buffer (PBS 2% FCS) starting from a high concentration of ˜66 nM for each sample. 0.1×10⁶ CCRF-EM cells were plated in a 96 well plate and incubated in 50 μl FACS buffer containing the indicated concentration of sample variants for 1 hour in ice. Cells were then washed with 150 μ1 FACS buffer and incubated in 50 μl FACS buffer containing the secondary antibody (anti-human-IgG-PE, Jackson ImmunoResearch) diluted 1:100, for 1 hr in ice. Cells were then washed with FACS buffer and fixed in 2% PFA for acquisition with LSR II, DB flow cytometer (BD Biosciences, San Jose, Calif.). Flow Cytometry analysis was performed using FloJo software Version 9.6.4. To obtain titration curves and Kd, Mean Fluorescence Intensity (MFI) values were plotted against concentration (nM). Kd values were calculated using Prism 6, Non linear regression curve fit analysis, One Site Specific Binding with Hill Slope.
For orientation: In flow cytometry, cells or beads pass a laser one at a time.

Assay [3] deals with T3, human CD47 antigen (human, UniProt Q08722 19-139, limits assumed).
T3 construct: also called CD47 analyte
Description: SPR (Biacore), experimental Rmax against theoretical Rmax, stoichiometry 2. The procedure:
(§2) Kinetic Assays: For kinetic assays anti-CD47 antibodies were captured onto the anti-human Fc surfaces (surface preparation described above). For capture of the antibodies with human Fc, the antibodies were diluted to 10 μg/mL in HBS-EP+ running buffer. The antibody variants were immobilized by flowing over flow cell 2, 3 or 4 at a flow rate of 10 uL/min for 12 seconds. The analyte (human CD47 antigen) was diluted into running buffer to prepare a serial dilution series created with a 2-fold dilution factor to give concentrations of 3.125, 6.25, 12.5, 25 and 50 nM. After anti-CD47 antibody capture, the CD47 analyte was injected over the flow cells for 180 seconds (3 minutes) at 50 μL/min, and complex dissociation was monitored for 900 seconds (15 minutes). Buffer blanks were also run, and were used to reference the analyte binding data before fitting. Anti-human Fc surfaces were regenerated with two 30-second injections of 3M MgCl₂ at 30 uL/min between each analyte binding cycle.
Kinetic data analysis: Experimental data for a given antibody—antigen interaction were fit using the 1:1 binding model, using global Rₘₐₓ, global kₐ (association), global kd (dissociation) parameters, and constant RI (bulk refractive index) parameters. Fraction activity (% ligand activity) was determinined using the following formula to calculate the relationship between the theoretical Rₘₐₓ (Rₘₐₓ Theo) and the experimental Rₘₐₓ (Rₘₐₓ exp). In the formula, stoichiometry represents the instances of interaction between antibody and antigen, for instance, when the antibody is the ligand, each of the antibody arms can interact with antigen, thus the stoichiometry is 2.
Background: In SPR one partner is held on a chip, and binding of the other changes the refractive index at the surface.

In assay [4] the target is T3, human CD47 antigen. Description: SPR (Biacore), antibody captured on anti-human Fc, human CD47 as analyte 3.125-50 nM, 1:1 model. The procedure: Immobilization: Anti-human Fc (AHC) surfaces were prepared by amine-coupling monoclonal mouse anti-human Fc IgG (included in the Biacore Human Antibody Capture Kit, GE Life Sciences Cat #BR-1008-39) to a Biacore CM5 sensor chip surface. The running buffer for the immobilization procedure was HBS-EP+ (10 mM HEPES, 150 mM NaCl, 3 mM EDTA, 0.05% v/v P-20 as surfactant). The following was performed in all four flow cells to prepare surfaces amine-coupled anti-human Fc IgG. The CM5 chip surface was activated by injecting a 1:1 (v/v) mixture of 400 mM EDC and 100 mM NHS for 7 minutes at 10 μL/min. Following this treatment, anti-human IgG was diluted to 25 μg/mL in 10 mM sodium acetate buffer pH 5.0, and injected over all the flow cells at 10 μL/min for 7 minutes. Then, Ethanolamine was injected at 10 μL/min for 7 minutes to block all the surfaces.
as §2
Kinetic data analysis: Experimental data for a given antibody—antigen interaction were fit using the 1:1 binding model, using global Rₘₐₓ, global kₐ (association), global kd (dissociation) parameters, and constant RI (bulk refractive index) parameters.

In assay [5] the target is T1, human C1q. Briefly: C1q binding ELISA, antibody coated and titrated, bound human C1q detected with anti-C1q HRP; NA = do not show activity. The procedure: as §1

T1 sequence (P02745 23-245 limits assumed, chain 1 of 3): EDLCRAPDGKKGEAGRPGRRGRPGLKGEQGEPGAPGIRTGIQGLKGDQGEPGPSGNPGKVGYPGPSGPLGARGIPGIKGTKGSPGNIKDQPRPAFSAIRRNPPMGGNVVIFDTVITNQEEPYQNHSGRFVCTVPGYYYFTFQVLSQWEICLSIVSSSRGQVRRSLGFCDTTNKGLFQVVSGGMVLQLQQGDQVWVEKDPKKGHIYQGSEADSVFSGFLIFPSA
T1 sequence (P02746 28-253 limits assumed, chain 2 of 3): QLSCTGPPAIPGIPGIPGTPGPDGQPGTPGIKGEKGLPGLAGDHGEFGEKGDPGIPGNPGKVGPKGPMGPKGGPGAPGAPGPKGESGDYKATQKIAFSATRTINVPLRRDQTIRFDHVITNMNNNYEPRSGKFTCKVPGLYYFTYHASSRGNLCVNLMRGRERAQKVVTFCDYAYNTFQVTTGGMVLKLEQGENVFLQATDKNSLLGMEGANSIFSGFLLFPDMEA
T1 sequence (P02747 29-245 limits assumed, chain 3 of 3): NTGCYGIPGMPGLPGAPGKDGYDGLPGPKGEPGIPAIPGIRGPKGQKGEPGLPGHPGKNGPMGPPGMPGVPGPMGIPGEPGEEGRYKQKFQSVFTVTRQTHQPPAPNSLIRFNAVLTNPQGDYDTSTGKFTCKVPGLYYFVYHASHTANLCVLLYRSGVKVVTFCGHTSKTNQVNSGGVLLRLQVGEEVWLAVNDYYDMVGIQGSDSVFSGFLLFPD

B1: anti-CD47 antibody IgG1-parental, CHO expressed (antibody)
VH: not shown
VL: NIQMTQSPSAMSASVGDRVTITCKASQDIHRYLSWFQQKPGKVPKHLIYRANRLVSGVPSRFSGSGSGTEFTLTISSLQPEDFATYYCLQYDEFPYTFGGGTKVEIKRTVAAPSVFIFPPSDEQLKSGTASVVCLLNNFYPREAKVQWKVDNALQSGNSQESVTEQDSKDSTYSLSSTLTLSKADYEKHKVYACEVTHQGLSSPVTKSFNRGEC
notes: Parental antibody as IgG1, made in CHO cells; also called IgG1-QN1-CHO
As for B1, it took 3.6 nM to reach a half-maximal effect in the assay with human C1q [1] (EC50). The Kd – broadly, the free concentration of one partner at which half of the binding sites on the other are occupied at equilibrium, for simple one-to-one binding – in assay [2] is 0.18 nM.

B2: anti-CD47 antibody IgG4PE-5m, cell-free expressed (antibody)
heavy: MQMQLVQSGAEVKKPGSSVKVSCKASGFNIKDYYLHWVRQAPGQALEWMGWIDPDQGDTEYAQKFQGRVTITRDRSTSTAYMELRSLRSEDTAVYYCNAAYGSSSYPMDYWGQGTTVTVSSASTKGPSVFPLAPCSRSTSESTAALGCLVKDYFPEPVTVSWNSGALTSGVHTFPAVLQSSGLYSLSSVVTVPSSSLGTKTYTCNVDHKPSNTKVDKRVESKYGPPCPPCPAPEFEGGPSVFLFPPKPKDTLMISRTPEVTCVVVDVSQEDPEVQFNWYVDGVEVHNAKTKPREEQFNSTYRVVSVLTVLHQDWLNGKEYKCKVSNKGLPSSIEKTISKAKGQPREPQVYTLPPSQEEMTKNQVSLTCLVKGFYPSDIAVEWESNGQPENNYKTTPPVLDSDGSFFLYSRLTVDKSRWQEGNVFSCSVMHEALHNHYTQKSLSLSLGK
light: MNIQMTQSPSAMSASVGDRVTITCKASQDIHRYLSWFQQKPGKVPKHLIYRANRLVSGVPSRFSGSGSGTEFTLTISSLQPEDFATYYCLQYDEFPYTFGGGTKVEIKRTVAAPSVFIFPPSDEQLKSGTASVVCLLNNFYPREAKVQWKVDNALQSGNSQESVTEQDSKDSTYSLSSTLTLSKADYEKHKVYACEVTHQGLSSPVTKSFNRGEC
notes: IgG4 S228P/L235E with 5 framework mutations in VH; cell-free system; also called IgG4PE-5m-CF
For B2, in the assay with human CD47 antigen [3], the “% Ligand activity” value worked out at 39.2%. In addition, in the assay with human CD47 antigen [4], the affinity, expressed as Kd, was 4.27 nM; the koff (as a rule, the rate constant with which the complex falls apart) amounted to 0.00254 s⁻¹; the kon (in general, the rate constant with which the complex forms) worked out at 594000 M⁻¹ s⁻¹. Besides, in the assay with human C1q [5], the binding result is listed as “no binding”. The equilibrium dissociation constant (Kd) in assay [2] amounted to 0.14 nM.
